Source: the nanobody polyreactivity screen of Harvey et al. (2022)

Assay: yeast display, Sf9 membrane polyspecificity reagent, FACS + sequencing; frameworks hold sequencing errors
How it was run: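 A synthetic nanobody library was expressed on Saccharomyces cerevisiae BJ5465 by galactose induction for 36–48 hours. The library was stained for 1 hour at 4 °C with 10% biotinylated, detergent-solubilized Sf9 membrane reagent and enriched with streptavidin microbeads before FACS. Low and high (top ~1%) gates were set on anti-HA fluorescence for expression and streptavidin fluorescence for reagent binding, and each polyreactivity label reflects the gate of origin.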

| Sequence | polyreactivity (PSR sort gate) |
| --- | --- |
| QVQLVESGGGLVQAGGSLRLSGAASGLIFWGYTMGWYRQAPGKERVLVAAISRRGGRTYYADSVKGRFTISRDNAKNTVYLQMHSLKPEDTAVDYCNADITSSGPKSDYWGQGTQVTVSS | high polyreactivity |
| QVQLVESGGGLVQAGGSLRLSGAASGRTLVPYAMGWYRQAPGKERELVAAISSGGSTNYADSVKGRFRISRDNAKNTVYLQMNSLKPEDTAVYYCAYCGQGTQVTVSS | low polyreactivity |
| QVQLVESGGGLVQAGGSLRLSGAASGSIFNRNAMGWYRQAPGKESELVARISWTAGSTYYADSEKARFTISRDYAKNTVYLQMNSLKPEDTAVYYCNDVKGYYDLYDKFDYWGQGTQVTVSS | low polyreactivity |
| QVQLVESGGGLVQAGGSLRLSGAASGSIFYSNARGWYRQAPGKERELVAAITVGGGRTYYADSVKGRFTISRDNAKNTVYLQMNSLKPEDTAVYYCAADSHASTYDYWGQGTQVTVSS | low polyreactivity |
| QVQLVESGGGLVQAGGSLRLSGAASGSTCYFNAQGWFRPAPGKERELVAAITYSGGSTYYADSVKGRFTISRDNAKNTVYLQLNSLKPEDTAVYYCAAQWRRHSTRSRYYYWGQGTQVTVSS | high polyreactivity |
| QVQLVESGGGLVQAGGSLRLSLAASGLSLRNYAMGWYRQAPGKERELVADITTGGGRTYYADSVKGRFTISRDNAKNTVYLQMNSLKPEDTAVYYCAAPTHLHGHGNQNEFYYWGQGTQVTVSS | low polyreactivity |
| QVQLVESGGGLVQAGGSLRLSRAASGFIFSGNAMGWYRKAPGKERELVAVITTSGGSTYYADSVKGRFTISRDNAKNTVYLQMISMKPEDTAVYYCNKPGHRSGPPYDYWGQGTQVSVSS | high polyreactivity |
| QVQLVESGGGLVQAGGSLRLSRAASGGTFFVYMGWYRQAPGKERELVADISGSGGGTYYADSVKGRFTISRDNAKNTVYLQMNSLKPEDTAVYYCATDVPTGIIRMYWGQGTQVTVSS | low polyreactivity |
| QVQLVESGGGLVQAGGSLRLSSAANGMIYVSYAMGWYRQAPGKERELVATITRSGGSTYYADSVKGRFTISRDNAKNTVYLQMNSLKPEDTAVYYCARYWRTSGVRMDYWGQGTQVTVSS | high polyreactivity |
| QVQLVESGGGLVQAGGSLRLSSAASARIFGYYVMGWYRQAPGKERELVARIRSGGNTYYADSVKGRFTISRDNAKNTVYLQMNSLKPEDTAVYSCNADPRTGWYIYDYWGQGTQVTVSS | high polyreactivity |
| QVQLVESGGGLVQAGGSLRLSSAASGFIFIIYAMGWYRPAPGKERELVAGIRWSGGSTYYADSVKGRFTISRDNAKNTVYLQMNSLKPEDTAVYYCNKDRGSLTLYTYDYWGQGTQVTVSS | low polyreactivity |
| QVQLVESGGGLVQAGGSLRLSSAASGFIIPDYGMGWYRQAPGKDSELVAAISRNGVSTYYADSVKGRFTISRDTAKNTVYLQMNSLKPEATAVYYCAARYYRIRRVSKSGYYWGQGTQVTVSS | low polyreactivity |
| QVQLVESGGGLVQAGGSLRLSSAASGFISPSYALGWYRPAPGTERELDAAIRSSDGSTYYADSVKGRFTISRDTAMNSVYLQMNSLKPEDTAVYYCAGGGSYYRDDYWGQGTQVTVSS | low polyreactivity |
| QVQLVESGGGLVQAGGSLRLSSAASGFTFARYAMGWYRQAPGKERELVAAITFSGTRTYYADSVKGRFTISRDNAKNTVYLQMNSLKPEDTAVYYCAAVVQTKAYRKAVYYFSSYDYWGQGTQVTVSS | high polyreactivity |
| QVQLVESGGGLVQAGGSLRLSSAASGFTFDYNTMGWDRQAPGKERELVAGISRGGGSTYYADSVKGRFTISRDNAKNTVYLQMNSLKPEDTAVYYCNTVLKRQRKNEYWGQGTQVTVSS | high polyreactivity |
| QVQLVESGGGLVQAGGSLRLSSAASGFTFKAYVMGWYRQAPGKERELVAASTRSGSSTYYADSVKGRFTISRDNGKNSVYLQMYSLKPEDTAVYYCAARYTQRPRRNYWGQVTQVTVSS | high polyreactivity |
| QVQLVESGGGLVQAGGSLRLSSAASGFTFPVYAMGWYRPATGKESELVAAISRRGGRTYYADSVKGRFTISRDNAKNRVYLQMNCLKPEDSAVYYCNKGETLYGSVPYDYWGQGTQLTVSS | high polyreactivity |
| QVQLVESGGGLVQAGGSLRLSSAASGFTFRIYAMGWYRQAPGKERELVATISWSGTSTYYADSVKGRFTISRDNAKNTVYLQMNSLKPEDTAVYYCAKDGVSFYWLNKYYYWGQGTQVTVSS | low polyreactivity |
| QVQLVESGGGLVQAGGSLRLSSAASGFTFRRYAMGWYRQAPGKERELVAAISTSGGNTYYADSVKGRFTISRDNAKNTVYLQMNSLKPEDTAVYYCYARRKDNGHGTPFDDYWGQGTQVTVSS | high polyreactivity |
| QVQLVESGGGLVQAGGSLRLSSAASGFTFSGYAMGWYRQAPVKERELVAAISSSGASTYYADSVKGRFTISRDNAKNTVYLQIHSLKPEDTAVYYCAAGTRLSDGYYWGQGTQVTVSS | high polyreactivity |
| QVQLVESGGGLVQAGGSLRLSSAASGFTFSLYRMGWYRQAPGKERELVASISNRGGTFYADSVKGRFTISRDNAKNTVYVQMNSLKPEETAVYYCARKTYYTGDFLGREYGYWGQGPQVTVSS | low polyreactivity |
| QVQLVESGGGLVQAGGSLRLSSAASGFTFVGYAMGWSRQAPGKERELVAAITGRGGTTYYADSVKGRFTISRDNAKNTVYLQMNSLKPEDTSVYYCAADTPSFWTEVDSWGQGTQVTLSS | low polyreactivity |

| Sequence | polyreactivity (PSR sort gate) |
| --- | --- |
| QVQLVESGGGLVQAGGSLRLSSAASGGIFQLYAMGWYRQAPGKERELVADISRSGGSTYYADSVKGRFTISRDTAKNTVYLQMNSLKPEDTAVYYCAARYWTSIVRYRGDYWGQGTQVTVSS | high polyreactivity |
| QVQLVESGGGLVQAGGSLRLSSAASGGIFRYNAMGWYRQAPGKERELVAGISYRGGTTYYADSVKGRFTISRDNAKNTVYLQMNSLKPEDTAVYYCAAAASSPGGWFYYWGQVTQVTVSS | high polyreactivity |
| QVQLVESGGGLVQAGGSLRLSSAASGGIFSRYGMGSYRQAPGKERELVAAITWSGGRTYYADSVKGRFTISRDNAKNTVYLQMNSLKPEETAVYYCAALETSFSSVGYEYWGQGTQVTVSS | high polyreactivity |
| QVQLVESGGGLVQAGGSLRLSSAASGIIFPGYAMVWYRQAPGKERELVAAISSGGDTYYADSVKGRFTISRDNAKNTVYLQMNSLKPEDTGVYYCTAAQLSSDRTSNYGYYPWYEYWGQGTQVTVSS | low polyreactivity |
| QVQLVESGGGLVQAGGSLRLSSAASGITFERNGMGWYRQAPGKERELVAAIRSGGSTYYADSVKGRFTISRDNAKITVYLQMNSQKPEDTAVYYCAAVTQGGYTYLGDYWGQGTQVTVSS | low polyreactivity |
| QVQLVESGGGLVQAGGSLRLSSAASGITFFHYAMGWYRQEPGKERELVATISWRAGSTYADSVKGRFTISRDNAKKTVYLQMNSLKPEDTAVYYCNAVWTYHSGSGGYLFDYWGLGTQVTVSS | low polyreactivity |
| QVQLVESGGGLVQAGGSLRLSSAASGITFYFYVMGWYRQAPGKERELVADISTSDDSTYYADSVKGRFTISRDNAKNTVYLQMNSLKPEDTAVYYCATATRTYSAWYEYDYWGQGTQVTVSS | low polyreactivity |
| QVQLVESGGGLVQAGGSLRLSSAASGLIFYSYTMGWNRQAPGKERELVAVISRSGTSTYYADSVKGRFTISRDNAKNTVYLQMNSLKPEDTSVYYCAALTRSGPYAYEYWGQGTQVTVSS | high polyreactivity |
| QVQLVESGGGLVQAGGSLRLSSAASGLNFYWYAMGWSRQAPGKERELVAAISTAGSTNYADSVKGRFTISRDNAKNTVYLQMISLKPEDTAVYYCNARIAYRYSNYGYWGQGTQVTVSS | low polyreactivity |
| QVQLVESGGGLVQAGGSLRLSSAASGLTFYRNAMGWYRQAPGKERELVAGISSSGASTYYADSVKGRFTISRDNAKNTVYLQMNSLKPEDTAVYYCAVRFYGRYLRYNYWGQGTQVTVSS | high polyreactivity |
| QVQLVESGGGLVQAGGSLRLSSAASGLTFYVYAMGWYRQGPGKEREWVARITWSGGSTYYADSVKGRFTISRDHAKNTVYLQMNSLKPEDTAVYYCAAEWSEESDYWGQGTQVTVSS | low polyreactivity |
| QVQLVESGGGLVQAGGSLRLSSAASGLTIYYYAMGWYRQAPGKERELVAAITWRGGSTYYADSVKGRFTISRDNAKYPDYLQMNCLIPAVTAVYYSAADPGPYGYYYWGQGTQVTVSS | low polyreactivity |
| QVQLVESGGGLVQAGGSLRLSSAASGNIFDYYAMGCYRQAPGKERELVASISWSGRGTYYADSVKGRFTISRDNAKNTVYVQMTSLKAEDTAVYYCAADGSTVNAPRWSDPYDYWGQGSQVTVSS | low polyreactivity |
| QVQLVESGGGLVQAGGSLRLSSAASGNIMDVYAMGWYRQAPGKERELVAAISGTDGSTYYADSVKGRFTISRDNAKNTVYLQMNSLKPEDTAVYYCAAEYVYFWWGENYWGQGTQVTVSS | high polyreactivity |
| QVQLVESGGGLVQAGGSLRLSSAASGNNFHFYAMGSYRQAPGKERELVATISWRGDGTYYADSVKGRFTISRDNAKNTVYLQMNSLKPEDTAVYYCAGRGVWPEYDYWGQGTQVNVSS | low polyreactivity |
| QVQLVESGGGLVQAGGSLRLSSAASGRIFARYAMGWYIQAPGKERELVAAITVSGDNTYYADSVKGRFTISRDNAKNTVYLQMNSRKPEDSADYYCDVRAVLLFGFFEYDYWGHGTQVTVSS | low polyreactivity |
| QVQLVESGGGLVQAGGSLRLSSAASGRIFFGNTMGWYRQAPGKERELVATIRKIGGRTYYADSVKGRFTISRDNAKNTVYLQMNSLKPEDTAVYYCATDFAPSYYPDRFDYWGQGTQVTVSS | low polyreactivity |
| QVQLVESGGGLVQAGGSLRLSSAASGRIFKIYPMVWYRQAPGKERELVAAISGRGGSTYYADSVKGRFTISRDNAKNTVYLQMISLKPEDTAVYYCAAVGYGFSAYSTYDYWGQGTQVTVSS | high polyreactivity |
| QVQLVESGGGLVQAGGSLRLSSAASGRIFKYYAMGWYRQAPGKERELVAAISWRGGRTYYADSVKGRFTISRDNAKNTVYLQMNSLKPEDTAVYYCAAEWYATMGYWGQGTQVTVSS | low polyreactivity |
| QVQLVESGGGLVQAGGSLRLSSAASGRIFPHNAMGWYRQAPGKERELVAAISSNGGSTYYADSVKGRFTISRDNAKNTVYLQMNSLKPEDTAVYYCAKYRYFAGDGDYWGQGTQVTVSS | low polyreactivity |
| QVQLVESGGGLVQAGGSLRLSSAASGRIFQRYAMGCYRQAPGKERELVAAISGSGGRTYYADSVKGRFTISRDNAKNTVYLQLNSLKPDDSAVYYCAAYPSYYADSGLRYDYWGQGTQVTVSS | high polyreactivity |
